Consider 3 molecules from patent US20070218502A1 (Scripps Research, published 2007).

Ends that are not written are not given here.

The Kd is the equilibrium constant for the complex coming apart.

For experiment [1], the target named is T1, peptide tag (SEQ ID NO:16), unlabeled synthetic peptide (C-terminal amide).
T1 construct: Short peptide tag derived from the leucine zipper of the GCN4 transcription factor; also called protein tag peptide; unlabeled peptide
T1 peptide: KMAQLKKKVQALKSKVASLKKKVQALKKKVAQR
Put plainly: equilibrium fluorescence titration.

The target in experiment [2] is T1, peptide tag (SEQ ID NO:16), unlabeled …. Put plainly: equilibrium fluorescence anisotropy titration, 12.52 nM labeled peptide, 0.1x PBS, 25° C., 1:1 binding fit. In general terms: Fluorescence polarisation rises when a labelled molecule tumbles more slowly, as on binding a larger partner.
Experiment [3] has as its target T2, human high affinity IgE receptor (FcεRI) α-chain with the NOVA-2 peptide tag at the C-terminus, expressed in … (human, UniProt P12319 26-257).
T2 construct: whole, on cells; Retained in the endoplasmic reticulum membrane of the cells; also called peptide-tagged FcεRI α-chain; NOVA2-tagged α-chain
T2 sequence: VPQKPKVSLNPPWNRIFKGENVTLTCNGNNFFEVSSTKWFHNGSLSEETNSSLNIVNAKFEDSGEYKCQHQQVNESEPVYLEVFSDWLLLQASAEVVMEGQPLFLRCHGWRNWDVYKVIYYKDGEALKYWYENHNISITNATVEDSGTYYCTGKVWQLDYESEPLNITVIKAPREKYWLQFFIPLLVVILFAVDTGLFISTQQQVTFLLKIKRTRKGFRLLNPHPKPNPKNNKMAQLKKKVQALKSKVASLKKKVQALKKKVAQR
Put plainly: fluorescence imaging in live Cos-7 cells after microinjection.

Experiment [4] concerns the target T3, cdc42-GTPγS (recombinant 6His-tagged cdc42 loaded with GTPγS) (UniProt P60953 1-191, limits assumed).
T3 construct: not shown: 6His tag
In words: fluorescence of dye-labeled CBD in solution.

The target in experiment [5] is T3, cdc42-GTPγS (recombinant 6His-tagged …). In words: fluorescence of mero-CBD with saturating cdc42-GTPγS.
Experiment [6] deals with T4, RhoA-GTPγS (recombinant 6His-tagged RhoA pre-equilibrated with GTPγS) (UniProt P61586 1-193, limits assumed).
T4 construct: not shown: 6His tag
Put plainly: fluorescence of mero-CBD in solution.

T3 sequence (P60953 whole entry): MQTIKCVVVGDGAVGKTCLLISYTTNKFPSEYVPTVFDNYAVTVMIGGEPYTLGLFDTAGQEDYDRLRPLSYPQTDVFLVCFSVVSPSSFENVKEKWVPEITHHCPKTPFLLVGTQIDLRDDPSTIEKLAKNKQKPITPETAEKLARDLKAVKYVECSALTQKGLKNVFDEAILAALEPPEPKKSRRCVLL
T4 sequence (P61586 whole entry): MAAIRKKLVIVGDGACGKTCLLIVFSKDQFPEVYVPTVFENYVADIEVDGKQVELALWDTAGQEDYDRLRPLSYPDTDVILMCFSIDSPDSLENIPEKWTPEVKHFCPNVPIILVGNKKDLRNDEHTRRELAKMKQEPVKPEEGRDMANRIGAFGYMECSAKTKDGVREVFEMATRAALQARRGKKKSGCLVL

B1: tetramethylrhodamine-labeled leucine zipper peptide (SEQ ID NO:15) with YGRKKRRNRRRP (SEQ ID NO:17) appended to the N-terminus, as used in the in vitro … (peptide)
peptide: YGRKKRRNRRRPCEMAQLEKEVQALESEVASLEKEVQALEKEVAQR-NH2
modifications: not fully specified
notes: Peptide derived from the GCN4 leucine zipper; also called labeled peptide; TMRPep
Regarding B1, the Kd in experiment [1] came to 5 nM; in experiment [2] it was 5.4 nM.

B2: rhodamine-labeled peptide (SEQ ID NO:15, tetramethylrhodamine on Lys 21), as microinjected into cells (peptide)
peptide: CEMAQLEKEVQALESEVASLEKEVQALEKEVAQR-NH2
modifications: also: tetramethylrhodamine on Lys stated as position 21, which does not match a Lys in the given chain
notes: also called rhodamine peptide biosensor; rhodamine-peptide
Consider B2, for which the binding result in experiment [3] is given as “binds”.

B3: mero-CBD-F271C conjugate (Cdc42-binding fragment of human WASP, amino acids 201 to 321, F271C, labeled with merocyanine dye) (other)
chain: DIQNPDITSSRYRGLPAPGPSPADKKRSGKKKISKADIGAPSGFKHVSHVGWDPQNGFDVNNLDPDLRSLCSRAGISEAQLTDAETSKLIYDFIEDQGGLEAVRQEMRRQEPLPPPPPPSR
modifications: merocyanine dye of FIG. 11 on Cys 271 (WASP numbering)
notes: that entry has 120 residues and ends at WASP 320; also called CBD-A4C; CBD biosensor; not shown: C-terminal 6His tag from pET23a
On to B3, for which the “fold fluorescence change on binding” value in experiment [4] is approximately 3.5 fold. In experiment [5], the “fold increase in excitation and emission maxima” value is approximately 3.5 fold. In experiment [6], the binding result is reported as “no binding”.
